Test results as given in the supplement of paper PMC9732359.
± gives the uncertainty stated by the source.

Experiment: protein stability index of a GFP-peptide fusion (yeast GPS) (PSI 1-4); higher = more stable; sorted into four equal gates, so the index is relative within each strain
Procedure, shortened: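 Yeast carrying a pooled library were grown to mid-log phase in leucine-free medium. Each library plasmid expresses Cherry and has a tiled 17-residue yeast protein peptide fused downstream of GFP. Cells were sorted into four equal gates by GFP/Cherry ratio, and plasmids from each gate were PCR-amplified, Illumina-sequenced and assigned to strains by barcode. Summing, across gates, the read frequency times the gate number gave each peptide's protein stability index.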

Sequence | protein stability index (doa10∆) | protein stability index (pdr5∆) | protein stability index (san1∆) | protein stability index (ubr1∆)
PLAKKQTVRLIKDLQRA [SIR2] | 2.77 ± 0.08 | 3.01 ± 0.07 | 2.77 ± 0.057 | 2.97 ± 0.062
DIEQLEYSRDCFCEDHC [RPB3] | 3.1 ± 0.064 | 2.54 ± 0.052 | 2.92 ± 0.066 | 2.61 ± 0.065
LVDDENEPSQSLISTRN [BRN1] | 3.22 ± 0.058 | 3.4 ± 0.064 | 3.19 ± 0.047 | 3.15 ± 0.057
ESIDVDMDAESNESQNG [SMC3] | 3.21 ± 0.094 | 2.91 ± 0.079 | 2.65 ± 0.066 | 3.27 ± 0.037
RSTDRDRVKVIECFKPG [CSL4] | 3.14 ± 0.14 | 3.1 ± 0.2 | 3.26 ± 0.1 | 2.99 ± 0.088
KYFTELSHYIRQCFQDN [MED1] | 2.38 ± 0.053 | 2.35 ± 0.06 | 1.92 ± 0.089 | 2.5 ± 0.038
SKSAFSFGTANTNGTNA [YOR098C/NUP1] | 3 ± 0.088 | 3.08 ± 0.088 | 2.77 ± 0.14 | 2.86 ± 0.067
VGGQFSKVQFDAKTSYP [REC8] | 3.19 ± 0.095 | 3.17 ± 0.094 | 3 ± 0.077 | 3.19 ± 0.055
PSTNAQNVNVPSAFNFT [YOR098C/NUP1] | 2.6 ± 0.046 | 2.73 ± 0.054 | 2.67 ± 0.041 | 2.75 ± 0.045
NTSFSFTKPPANETDKR [YOR098C/NUP1] | 3.08 ± 0.075 | 3.11 ± 0.049 | 3.07 ± 0.046 | 3.15 ± 0.045
YDEVKKHWGGGILGNKA [RPL8A] | 3.16 ± 0.11 | 3.4 ± 0.089 | 3.44 ± 0.06 | 3.23 ± 0.061
TGKVSEFISIYSNSHQM [RET1] | 2.83 ± 0.092 | 2.44 ± 0.12 | 3.03 ± 0.11 | 2.72 ± 0.073
LDPALLRPGRIDRKVEF [RPT1] | – | 3.07 ± 0.28 | 3.34 ± 0.068 | –
QPKDLRAKKTRALRRAL [RPL35A] | – | – | – | 3.1 ± 0.15
TLERVHLSYCSNLTIYP [GRR1] | 2.92 ± 0.067 | 3 ± 0.067 | 2.99 ± 0.15 | 3 ± 0.05
EELRKHAQKRVSNASAR [SKI6] | 3.25 ± 0.23 | 3.22 ± 0.095 | 3.01 ± 0.11 | 2.89 ± 0.073
AVAHHTDCKFIRVSGAE [RPT6] | 3.04 ± 0.13 | 3.21 ± 0.16 | 3.19 ± 0.14 | 2.92 ± 0.11
GFSMNNPYNIVPQGKIV [SMC3] | 3.05 ± 0.11 | 2.93 ± 0.071 | 3.08 ± 0.085 | 3.09 ± 0.062
AVYGPRSIRGSFTSQGT [MTR3] | 3.16 ± 0.12 | 3.2 ± 0.086 | 3.08 ± 0.098 | 3.02 ± 0.058
AKNEDDPAHSLNYTVIN [AAR2] | 2.93 ± 0.2 | 3.05 ± 0.18 | 2.68 ± 0.11 | 2.43 ± 0.18
NIMSASGGLFGNQQQQL [YGL172W/NUP49] | 3.25 ± 0.067 | 3.12 ± 0.086 | 3.29 ± 0.1 | 3.2 ± 0.042
FRVQSQSNYGIYSSDAQ [NUT1] | 2.03 ± 0.053 | 2.51 ± 0.059 | 1.8 ± 0.074 | 2.42 ± 0.1
GIACAGKGLQSAIDVLD [RPN2] | 2.15 ± 0.068 | 2.52 ± 0.077 | 2.48 ± 0.1 | 2.75 ± 0.071
LIQDLLHRLTPKNVKGE [RPN1] | 3.44 ± 0.25 | 3.27 ± 0.11 | 3.51 ± 0.21 | 3.01 ± 0.14
LVASAKGLQTVVVEEDA [RPL31A] | 2.48 ± 0.091 | 2.51 ± 0.1 | 2.54 ± 0.087 | 2.42 ± 0.085
LTDKDAFETHYRRLFAK [CDC53] | 2.94 ± 0.057 | 3.19 ± 0.067 | 2.97 ± 0.047 | 2.97 ± 0.043
ASTINGASIIQVIFEIF [YML103C/NUP188] | 1.43 ± 0.059 | 1.9 ± 0.054 | 1.95 ± 0.087 | 1.94 ± 0.046

Sequence | protein stability index (doa10∆) | protein stability index (pdr5∆) | protein stability index (san1∆) | protein stability index (ubr1∆)
AAIWTLCKTKMVCETDV [RPO21] | 1.55 ± 0.059 | 1.69 ± 0.057 | 1.44 ± 0.1 | 1.47 ± 0.034
KVCECVCMHCGKLLLDE [RPO21] | 2.96 ± 0.082 | 2.97 ± 0.073 | 2.88 ± 0.087 | 2.96 ± 0.047
YSPIEKESPWKILMYQY [RRP6] | 1.75 ± 0.063 | 1.89 ± 0.062 | 1.35 ± 0.11 | 1.44 ± 0.054
VGLVMFSQFWYWFPLAH [RPN2] | 1.52 ± 0.078 | 1.39 ± 0.072 | 1.66 ± 0.17 | 1.41 ± 0.051
TQLKKRAVSGVELRIYV [POP7] | 2.66 ± 0.13 | 2.23 ± 0.11 | 2.44 ± 0.14 | 2.78 ± 0.16
PVVINLDAKNKVFVPPK [RPO31] | 2.93 ± 0.12 | 3.13 ± 0.13 | 3.33 ± 0.11 | 2.95 ± 0.15
GRRKTWKRQNTLSLWRY [RPL15A] | 3.21 ± 0.1 | 3.11 ± 0.11 | 2.57 ± 0.085 | 3.37 ± 0.057
IDESLFNLLILSLNKRI [YCG1] | 2.75 ± 0.072 | 2.25 ± 0.062 | 2.03 ± 0.077 | 2.15 ± 0.033
DPPNEGDPFDYKAQADT [RPB3] | 3.18 ± 0.13 | 3.42 ± 0.12 | 3.34 ± 0.12 | 3.12 ± 0.073
FGKTVKDGPFYTGSMSL [RPC31] | 2.92 ± 0.15 | 3.17 ± 0.11 | 2.81 ± 0.086 | 2.98 ± 0.1
WEISNPDFLSKYSAITS [NUT1] | 1.54 ± 0.045 | 2.06 ± 0.044 | 1.51 ± 0.073 | 1.59 ± 0.041
PSASLKLHHDLKLCLGD [YMR129W/POM152] | 3.06 ± 0.073 | 3.09 ± 0.07 | 2.92 ± 0.083 | 3.03 ± 0.054
MLPPKSVKFTHIAHTLP [SSN2] | 1.57 ± 0.073 | 2 ± 0.05 | 2.05 ± 0.098 | 1.82 ± 0.034
DDIVSHQGTPLGSHSSS [REC8] | 3.2 ± 0.15 | 3.37 ± 0.12 | 3.04 ± 0.16 | 3.3 ± 0.095
DDDILIIRPILGKVRFA [SRB4] | 1.51 ± 0.056 | 1.66 ± 0.092 | 1.93 ± 0.15 | 2.56 ± 0.05
LSVMCGCGTVKRFNIGA [RPR2] | 3.16 ± 0.21 | 2.97 ± 0.12 | 3.14 ± 0.14 | 2.07 ± 0.18
PLLDIVLKADRSWNEPS [YML103C/NUP188] | 2.02 ± 0.15 | 2.86 ± 0.26 | – | 3.12 ± 0.11
ENDIIKLSDSKTSNIES [BRR2] | – | 2.48 ± 0.18 | 2.77 ± 0.19 | 3.09 ± 0.15
LPNQIPGEYITTIKAIF [YMR129W/POM152] | 2.37 ± 0.055 | 2.51 ± 0.055 | 2.78 ± 0.053 | 3.11 ± 0.041
RKANREEKLKANKEKKK [RPL24A] | 2.88 ± 0.074 | 1.98 ± 0.066 | 2.15 ± 0.087 | 2.31 ± 0.053
SSAHLIRINDEPILGQI [YML103C/NUP188] | 2.59 ± 0.084 | 2.9 ± 0.077 | 2 ± 0.14 | 2.45 ± 0.069
RRILAAAAAAAAAVSGN [SSN3] | 1.41 ± 0.12 | 1.26 ± 0.1 | 1.06 ± 0.26 | 1.59 ± 0.094
LLCALDRKDQDDRDHFG [RPB2] | 3.22 ± 0.096 | 3.28 ± 0.067 | 2.71 ± 0.1 | 3.47 ± 0.05
LSESLTKFFDDAKSTPL [RPN9] | 3.01 ± 0.07 | 3.26 ± 0.069 | 3.18 ± 0.055 | 3.12 ± 0.068
LLETKLRQQYEIELKKL [SWI1] | 3.01 ± 0.12 | 2.96 ± 0.1 | 3.17 ± 0.069 | 2.92 ± 0.11
SPQQFLRAHTDDSRNPD [PRE2] | 2.93 ± 0.092 | 3.03 ± 0.069 | 2.7 ± 0.079 | 2.88 ± 0.079
TGMEPGKTSFFQALGVP [RPP0] | 2.89 ± 0.13 | 3.2 ± 0.098 | 3.23 ± 0.13 | 3.17 ± 0.073

Sequence | protein stability index (doa10∆) | protein stability index (pdr5∆) | protein stability index (san1∆) | protein stability index (ubr1∆)
LRSNKCILYDADESKMA [RET1] | – | 3.07 ± 0.18 | – | –
ASINTSATVKTSDLLGS [ECM29] | 3.24 ± 0.24 | 2.96 ± 0.21 | – | 3.25 ± 0.21
FVKKTSEEIDSLNEDVE [SMC2] | 2.97 ± 0.17 | 3.2 ± 0.19 | – | –
TKPEVASDMSDEDIITI [CDC53] | 2.89 ± 0.14 | 2.56 ± 0.24 | – | 2.92 ± 0.12
SHVNKYGLIRGLKFASF [PRP8] | 1.83 ± 0.067 | 1.85 ± 0.065 | 1.91 ± 0.089 | 1.34 ± 0.03
LDRISSYTAFSRLTLLL [PRP8] | 1.86 ± 0.047 | 1.59 ± 0.044 | 1.93 ± 0.068 | 1.95 ± 0.035
SVLKDSDDKTRQLSPHT [PRE1] | 2.56 ± 0.088 | 2.72 ± 0.11 | 2.43 ± 0.099 | 2.52 ± 0.067
LKKQLHVSHEAMREVND [YIL149C/MLP2] | 2.77 ± 0.066 | 2.24 ± 0.058 | 2.91 ± 0.07 | 2.85 ± 0.076
LQHLRSRCHLVTKDTKK [SRP68] | 2.93 ± 0.11 | 2.88 ± 0.11 | 2.93 ± 0.12 | 3.12 ± 0.056
AKGCEVVVSGKLRAARA [RPS3] | 3.15 ± 0.14 | 3.24 ± 0.22 | 3.42 ± 0.14 | 3.25 ± 0.28
NLDFDPRDVIKGKDFEI [FAS1] | 3.47 ± 0.25 | 2.9 ± 0.29 | 3.32 ± 0.11 | 3.46 ± 0.1
AGVNNDNTKESKDVKMN [RTT102] | 3.1 ± 0.25 | – | – | 2.35 ± 0.24
SEVGNCSGSGMGGVSAL [FAS2] | 3.15 ± 0.075 | 3.38 ± 0.064 | 3.29 ± 0.056 | 3.31 ± 0.05
DKDVKAKYETSILEHSG [FAS2] | 3.36 ± 0.058 | 3.33 ± 0.065 | 3.23 ± 0.052 | 3.37 ± 0.064
TEQFCATLNYIDKNHGF [SRB7] | 2.26 ± 0.055 | 2.99 ± 0.061 | 3.2 ± 0.057 | 2.47 ± 0.052
KHGAVHLSTYLKVYKVG [RPL21A] | 1.76 ± 0.07 | 1.69 ± 0.077 | 1.27 ± 0.2 | 3.02 ± 0.065
YQVEYAFKATNQTNINS [SCL1] | 2.97 ± 0.072 | 3.19 ± 0.056 | 2.99 ± 0.081 | 3.06 ± 0.073
EKADYEDEMMHEEDQKT [RPN12] | – | 2.97 ± 0.15 | – | 3.03 ± 0.17
KKSVLKQVQDFEENDHP [COR1] | 2.85 ± 0.084 | 2.81 ± 0.15 | 2.81 ± 0.098 | 2.66 ± 0.067
FKVQIIELLSYLVEAPW [YML103C/NUP188] | 1.71 ± 0.091 | 2.03 ± 0.12 | 1.69 ± 0.21 | 2.26 ± 0.14
RQPSLHKMSMMAHRVKV [RPO21] | 2.2 ± 0.085 | 2.37 ± 0.073 | 2.81 ± 0.09 | 1.68 ± 0.082
ALASIQTFNFDSFENYF [RPN12] | 2.65 ± 0.048 | 2.77 ± 0.069 | 2.51 ± 0.096 | 2.82 ± 0.054
TELKKITDKTIKAFMDS [IRR1] | 2.99 ± 0.065 | 2.42 ± 0.054 | 2.46 ± 0.072 | 2.52 ± 0.079
KGSRQCRVCSSHTGLVR [RPS29B] | 2.67 ± 0.065 | 2.79 ± 0.051 | 2.66 ± 0.056 | 2.61 ± 0.03
ILSSVNRTVLLKIFKIF [SRB8] | 1.37 ± 0.083 | 1.42 ± 0.14 | 1.17 ± 0.16 | 1.13 ± 0.093
